Data set [1] is described as follows: cycloheximide chase immunoblot, MKN28. The conditions noted are these: glycan lost; control: KIAA1324 WT. On the technique in general: Immunoblotting shows a protein as a band on a membrane.
Data set [2] is described as follows: immunofluorescence, cell surface level, MKN28. The following applies: glycan lost; control: KIAA1324 WT.

B1: KIAA1324 (ELAPOR1, inceptor): 3NQ (protein)
parent chain: MAEPGHSHHLSARVRGRTERRIPRLWRLLLWAGTAFQVTQGTGPELHACKESEYHYEYTACDSTGSRWRVAVPHTPGLCTSLPDPIKGTECSFSCNAGEFLDMKDQSCKPCAEGRYSLGTGIRFDEWDELPHGFASLSANMELDDSAAESTGNCTSSKWVPRGDYIASNTDECTATLMYAVNLKQSGTVNFEYYYPDSSIIFEFFVQNDQCQPNADDSRWMKTTEKGWEFHSVELNRGNNVLYWRTTAFSVWTKVPKPVLVRNIAITGVAYTSECFPCKPGTYADKQGSSFCKLCPANSYSNKGETSCHQCDPDKYSEKGSSSCNVRPACTDKDYFYTHTACDANGETQLMYKWAKPKICSEDLEGAVKLPASGVKTHCPPCNPGFFKTNNSTCQPCPYGSYSNGSDCTRCPAGTEPAVGFEYKWWNTLPTNMETTVLSGINFEYKGMTGWEVAGDHIYTAAGASDNDFMILTLVVPGFRPPQSVMADTENKEVARITFVFETLCSVNCELYFMVGVNSRTNTPVETWKGSKGKQSYTYIIEENTTTSFTWAFQRTTFHEASRKYTNDVAKIYSINVTNVMNGVASYCRPCALEASDVGSSCTSCPAGYYIDRDSGTCHSCPTNTILKAHQPYGVQACVPCGPGTKNNKIHSLCYNDCTFSRNTPTRTFNYNFSALANTVTLAGGPSFTSKGLKYFHHFTLSLCGNQGRKMSVCTDNVTDLRIPEGESGFSKSITAYVCQAVIIPPEVTGYKAGVSSQPVSLADRLIGVTTDMTLDGITSPAELFHLESLGIPDVIFFYRSNDVTQSCSSGRSTTIRVRCSPQKTVPGSLLLPGTCSDGTCDGCNFHFLWESAAACPLCSVADYHAIVSSCVAGIQKTTYVWREPKLCSGGISLPEQRVTICKTIDFWLKVGISAGTCTAILLTVLTCYFWKKNQKLEYKYSKLVMNATLKDCDLPAADSCAIMEGEDVEDDLIFTSKKSLFGKIKSFTSKRTPDGFDSVPLKTSSGGLDMDL
On to B1, for which, in data set [1], the “degradation_or_half_life, other: protein level remaining at 2 h” value is “decreases”. In addition, the localisation_or_trafficking entry in data set [2] is “decreases”.

These data come from publication PMC10447535.
